Laboratory results reported in US20240075137A1 (COMPUGEN, published 2024).

Key:
[1] = biological target: T1, Mouse TIGIT-His (mouse, UniProt P86176); assay: SPR (ProteOn), Mouse TIGIT-His
T1 construct: also called mouse TIGIT monomer (prepared in-house)
T1 sequence (soluble monomer with His tag, looked up): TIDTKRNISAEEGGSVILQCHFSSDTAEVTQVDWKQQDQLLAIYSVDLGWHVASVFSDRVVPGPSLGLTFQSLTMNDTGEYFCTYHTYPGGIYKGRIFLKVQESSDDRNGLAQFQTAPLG

[2] = biological target: T2, human TIGIT on cells (human, UniProt Q495A1 22-141); assay: FACS titration of AF647-labelled mAb on human effector memory CD8+ T cells, Donor 321
T2 construct: also called Expi293 human TIGIT over-expressing cells
T2 sequence: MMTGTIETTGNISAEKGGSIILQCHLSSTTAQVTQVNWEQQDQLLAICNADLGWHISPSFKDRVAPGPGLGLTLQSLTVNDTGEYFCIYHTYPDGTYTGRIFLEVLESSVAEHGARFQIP

[3] = biological target: T2, human TIGIT on cells; assay: FACS titration of AF647-labelled mAb on human effector memory CD8+ T cells, Donor 322
[4] = biological target: T2, human TIGIT on cells; assay: FACS blocking of human PVR-m2aFc binding to human TIGIT OE Expi293 cells; binding site concentration; n=1
[5] = biological target: T2, human TIGIT on cells; assay: FACS titration on human TIGIT OE Expi293 cells, binding site concentration; ± 95% CI; 'Fit: Excellent'
Method: AF647-labeled goat anti-human F(ab′) (Jackson Immunoresearch) was added to the cells to detect binding of anti-TIGIT antibodies.

[6] = biological target: T3, Cyno TIGIT-His; assay: SPR (ProteOn), Cyno TIGIT-His
T3 construct: also called cyno TIGIT monomer (prepared in-house); C-terminal HIS-tagged cyno TIGIT ECD recombinant protein

[7] = biological target: T2, human TIGIT on cells; assay: FACS blocking of human PVR-m2aFc binding to human TIGIT OE Expi293 cells; binding site concentration; n=2
[8] = biological target: T4, cyno TIGIT on cells (cynomolgus macaque); assay: FACS titration on cyno TIGIT OE Expi293 cells, binding site concentration; ± 95% CI; 'Fit: Good/Excellent'
T4 construct: whole, on cells; also called Expi293 cyno TIGIT over-expressing cells
Method: AF647-labeled goat anti-human F(ab′) (Jackson Immunoresearch) was added to the cells to detect binding of anti-TIGIT antibodies. The gMFI of the anti-TIGIT antibodies bound to the cyno TIGIT over-expressing Expi293 cells (black line), and the parental Expi293 cells (grey line) are shown.

[9] = biological target: T2, human TIGIT on cells; assay: FACS titration of AF647-labelled mAb on human effector memory CD8+ T cells, Donor 334
[10] = biological target: T5, human TIGIT ECD with C-terminal polyhistidine tag (human, UniProt Q495A1 22-141); assay: SPR (ProteOn), Human TIGIT-His
T5 construct: in-house or Sino Biological; also called hTIGIT-HIS; human TIGIT-HIS
T5 sequence: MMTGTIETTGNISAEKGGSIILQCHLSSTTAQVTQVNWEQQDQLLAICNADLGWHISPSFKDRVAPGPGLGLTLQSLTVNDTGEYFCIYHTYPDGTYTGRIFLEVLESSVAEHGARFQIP

[11] = biological target: T5, human TIGIT ECD with C-terminal …; assay: KinExA equilibrium, His-tagged human TIGIT, n = 1
Method: KinExA equilibrium experiments were performed using a KinExA 3200 instrument (Sapidyne Instruments, Boise, ID, USA) at 22° C. Recombinant His-tagged human TIGIT was obtained from Sino Biologicals (Beijing, China) and reconstituted into 1×PBS. All antigen and antibody samples for KinExA analyses were prepared in degassed PBST buffer (PBS with 0.05% tween 20) with 100 ug/mL filtered BSA and 0.02% sodium azide. […] For each KinExA experiment, ˜20 lag of human TIGIT was diluted into 1 mL of 50 mM sodium carbonate, pH 9.2 which was added directly to 50 mg of azlactone beads (Ultralink Support, Thermo Scientific, Rockford, IL, USA) and rocked overnight at 4° C. After rocking, the beads were rinsed once with 1 M Tris buffer, pH 8.5, containing 10 mg/mL BSA and rocked for one hour at room temperature in the same buffer. Coupled beads were added to the bead reservoir in the KinExA instrument and diluted to ˜30 mL with 1×HBS-N (0.01 M Hepes, 0.15M NaCl, GE Healthcare) containing 0.02% sodium azide which was also the running buffer for the KinExA instrument. All antigen-coupled beads were used immediately after preparation.
The volume flowed through the bead pack for each equilibrated sample for all experiments ranged from 4 mL to 11 mL at a flow rate of 0.25 mL/min.

[12] = biological target: T6, human PVRIG on cells (human, UniProt Q6DKI7 1-326); assay: FACS on HEK hPVRIG cells; column head 'Kd', unit nM from legend paragraph 75
T6 construct: whole, on cells; over-expressed on HEK cells or endogenous on Jurkat and CD8 T cells; also called hPVRIG; HEK hPVRIG cells
T6 sequence (looked up): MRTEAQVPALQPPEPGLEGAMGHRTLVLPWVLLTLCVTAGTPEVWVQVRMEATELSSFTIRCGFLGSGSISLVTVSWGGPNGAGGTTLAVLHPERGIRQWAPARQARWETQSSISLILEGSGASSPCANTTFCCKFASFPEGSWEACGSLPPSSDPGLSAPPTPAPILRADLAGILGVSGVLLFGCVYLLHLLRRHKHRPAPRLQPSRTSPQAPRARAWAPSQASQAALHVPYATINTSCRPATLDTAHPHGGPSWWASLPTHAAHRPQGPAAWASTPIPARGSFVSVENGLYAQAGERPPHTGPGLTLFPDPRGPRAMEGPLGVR

[13] = biological target: T6, human PVRIG on cells; assay: FACS on Jurkat cells; column head 'Kd', unit nM from legend paragraph 75
[14] = biological target: T4, cyno TIGIT on cells; assay: flow cytometry of fab; MFI on cyno TIGIT over-expressing Expi293 / MFI on parental Expi293
[15] = biological target: T5, human TIGIT ECD with C-terminal …; assay: affinity maturation screen of fabs, SPR on hTIGIT-HIS
[16] = biological target: T2, human TIGIT on cells; assay: flow cytometry of fab; MFI on human TIGIT over-expressing Expi293 / MFI on parental Expi293
[17] = biological target: T4, cyno TIGIT on cells; assay: FACS titration of AF647-labelled mAb on cyno effector memory CD8+ T cells, Cyno Donor 1; isotype gMFI subtracted
[18] = biological target: T4, cyno TIGIT on cells; assay: FACS titration of AF647-labelled mAb on cyno effector memory CD8+ T cells, Cyno Donor 3; isotype gMFI subtracted
[19] = biological target: T4, cyno TIGIT on cells; assay: FACS KD on Expi293 cyno TIGIT over-expressing cells; ± 95% CI of the fit
[20] = biological target: T1, Mouse TIGIT-His; assay: SPR (ProteOn), mAb captured, mouse TIGIT monomer injected
Method: (§1) All experiments were performed using a ProteOn XPR 36 instrument at 22° C. First, high density capture surfaces were prepared with goat anti human Fc polyclonal antibody (Thermo #H10500) and rabbit anti mouse antibodies (GE Healthcare #BR100838), respectively, immobilized over all vertical capture lanes and horizontal interspots on separate GLC chips using standard amine coupling. Typical immobilization levels for the anti-human capture pAb and the anti-mouse capture antibody for each GLC chip were around 5000 RU. Human TIGIT was obtained from Sino Biologicals while mouse TIGIT monomer and cyno TIGIT monomer were prepared in-house.
(§2) Each mAb was diluted to ˜0.5 μg/mL in running buffer which was 1×PBST with filtered BSA added to a final concentration of 100 μg/mL. For each “single-shot kinetics” cycle on the ProteOn instrument, a different mAb was captured over one of the six unique vertical capture lanes for approximately 1.5-2.5 minutes. After switching the buffer flow of the ProteOn to the horizontal direction, capture surfaces were stabilized for approximately 15-20 minutes. […] An identical buffer injection preceded each series of injected antigen for double-referencing. […] The sensorgrams of TIGIT antigen injected over captured mAbs were processed using a ProteOn version of Scrubber and were fit to a 1:1 kinetic binding model including a term for mass transport.

[21] = biological target: T2, human TIGIT on cells; assay: FACS blocking: Expi293 human TIGIT cells pre-incubated with mAb, then human PVR-m2aFc; lower gMFI = more blocking
[22] = biological target: T5, human TIGIT ECD with C-terminal …; assay: SPR (ProteOn), mAb captured, human TIGIT injected
Method: as §1, §2

[23] = biological target: T2, human TIGIT on cells; assay: FACS KD on Expi293 human TIGIT over-expressing cells; ± 95% CI of the fit

T3 sequence (ECD with C-terminal His tag, as listed by the source): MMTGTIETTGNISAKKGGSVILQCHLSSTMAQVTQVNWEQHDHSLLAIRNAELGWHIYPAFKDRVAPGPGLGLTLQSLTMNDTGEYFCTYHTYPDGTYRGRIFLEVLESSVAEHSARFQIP

| Binder | Kd [2] [nM] | Kd [3] [nM] | IC50 [4] [nM] | Kd [5] [nM] | IC50 [7] [nM] | Kd [8] [nM] | Kd [9] [nM] | MFIr (OE/Par) cTIGIT [14] | fold improvement in binding over CPA.9.027 [15] [fold] | MFIr (OE/Par) hTIGIT [16] | further results |
| --- | --- | --- | --- | --- | --- | --- | --- | --- | --- | --- | --- |
| CHA.9.547.7.H4(S241P) (antibody, human IgG4 S228P, kappa, V domains shown, humanized hybridoma anti-TIGIT antibody, human IgG4) VH: EVQLVESGGGLVQPGGSLRLSCAASGFTFSSYIMSWVRQAPGKGLEWVATISGGGTNTYYADSVKGRFTISRDNSKNTLYLQMNSLRAEDTAVYYCAKWLLSYYAMDYWGQGTLVTVSS VL: DIQMTQSPSSLSASVGDRVTITCRASQNINVWLTWYQQKPGKAPKLLIYKASKSHTGVPSRFSGSGSGTDFTLTISSLQPEDFATYYCQQGQSYPYTFGQGTKLEIKR | 1.8 | 2.1 | 0.21 | 0.82 | 0.15 | 1.54 | 1.8 |  |  |  | binding result [1]: no binding (tested: not printed); Kd [6]: 0.456 nM; Kd [10]: 0.035 nM |
| CHA.9.547.13.H4(S241P) (antibody, human IgG4, V domains shown, humanized hybridoma antibody, human IgG4 (S241P)) VH: EVQLVESGGGLVQPGGSLRLSCAASGFTFSSYIMSWVRQAPGKGLEWVATISGGGTNTYYADSVKGRFTISRDNSKNTLYLQMNSLRAEDTAVYYCAKWLLSYYAMDYWGQGTLVTVSS VL: DIQMTQSPSSLSASVGDRITITCRASQNINVWLSWYQQKPGKAPKLLIYKASKSHTGVPSRFSGSGSGTDFTLTISSLQPEDFATYYCQQGQSYPYTFGQGTKLEIK | 2 | 1.9 | 0.26 | 0.71 | 0.21 | 1.67 | 1.2 |  |  |  | Kd [11]: 0.0188 nM |
| CPA.7.021 (antibody, V domains shown) VH: EVQLVESGGGVVKPGGSLRLSCAASGFTFGTSSMNWVRQAPGKGLEWVAVISFDGTEIHYADSVKGRFTISRDNSKSTVFLQMNSLRPDDTALYYCAKGSGNIYFYSGMDVWGQGTTVTVSS VL: DIQMTQSPSTLSASVGDRVTITCRAGQSISGWLAWFQQKPGKAPNLLIYETSTLESGVPSRFSGSGSGTEYTLTISSLQPDDFATYYCQQYYSYPLTFGQGTKVEIKR |  |  |  |  |  |  |  |  |  |  | Kd [12]: 2.94 nM; Kd [13]: 3.18 nM |
| CPA.9.083 (fab) (Fab, V domains shown, variant of CPA.9.027 screened as fab) VH: EVQLVETGGGLIQPGRSLRLSCAASGFTFSSYAMHWVRQAPGKGLEWVAVISYDGTPVYYADSVKGRFTISRDNSKNTLYLQMNSLRAEDTAVYYCARDPLPLHYYGMDVWGQGTTVTVSS VL: QSALTQPRSASGNPGQRVTISCSGSSSNMGRRPVNWYQQIPGTAPKLLIYSQNQRPSGVPDRFSGSQSGTSASLTISGLQSEDEAEYFCAVWDGDRRSLQLGGGTQLAVLG |  |  |  |  |  |  |  | 97 | ≥ 25 | 170 |  |
| CPA.9.083.H4(S241P) (antibody, human IgG4, V domains shown) VH: EVQLVETGGGLIQPGRSLRLSCAASGFTFSSYAMHWVRQAPGKGLEWVAVISYDGTPVYYADSVKGRFTISRDNSKNTLYLQMNSLRAEDTAVYYCARDPLPLHYYGMDVWGQGTTVTVSS VL: QSALTQPRSASGNPGQRVTISCSGSSSNMGRRPVNWYQQIPGTAPKLLIYSQNQRPSGVPDRFSGSQSGTSASLTISGLQSEDEAEYFCAVWDGDRRSLQLGGGTQLAVLG | 0.13 | 0.12 | 0.47 | 0.39 | 0.22 | 0.49 | 0.13 |  |  |  | Kd [1]: 0.434 nM; Kd [11]: 0.000694 nM; Kd [17]: 0.82 nM; binding result [6]: binds; Kd [18]: 0.88 nM; Kd [10]: 0.0017 nM |
| CPA.9.089 (fab) (Fab, V domains shown, variant of CPA.9.027 screened as fab) VH: EVQLVETGGGLIQPGRSLRLSCAASGFTFSSYAMHWVRQAPGKGLEWVAVISYDRTPVYYADSVKGRFTISRDNSKNTLYLQMNSLRAEDTAVYYCARDPLPLHYYGMDVWGQGTTVTVSS VL: QSALTQPRSASGNPGQRVTISCSGSSSNMGRRPVNWYQQIPGTAPKLLIYSQNQRPSGVPDRFSGSQSGTSASLTISGLQSEDEAEYFCATWDDSLPRLNFGGGTKLAVL |  |  |  |  |  |  |  | 52 | ≥ 25 | 110 |  |
| CPA.9.027 hIgG4 (antibody, V domains shown, phage-derived anti-TIGIT, human IgG4; also called CPA.9.027-H4) VH: EVQLVETGGGLIQPGRSLRLSCAASGFTFSSYAMHWVRQAPGKGLEWVAVISYDGSNKYYADSVKGRFTISRDNSKNTLYLQMNSLRAEDTAVYYCARDPLPLHYYGMDVWGQGTTVTVSS VL: QSALTQPRSASGNPGQRVTISCSGSSSNMGRRPVNWYQQIPGTAPKLLIYSQNQRPSGVPDRFSGSQSGTSASLTISGLQSEDEAEYFCAVWDDSLSSLQLGGGTQLAVLG |  |  |  |  |  |  |  |  |  |  | Kd [19]: 2.25 nM; Kd [20]: 80 nM; gMFI of bound PVR-m2aFc at 266 pM mAb [21]: 529; gMFI of bound PVR-m2aFc at 1.3 nM mAb [21]: 253; gMFI of bound PVR-m2aFc at 6.7 nM mAb [21]: 208; Kd [22]: 0.13 nM; Kd [23]: 0.17 nM |
| CPA.9.093 (fab) (Fab, V domains shown, variant of CPA.9.027 screened as fab) VH: EVQLVETGGGLIQPGRSLRLSCAASGFTFSSYAMHWVRQAPGKGLEWVAVISYEGDRKYYADSVKGRFTISRDNSKNTLYLQMNSLRAEDTAVYYCARDPLPLHYYGMDVWGQGTTVTVSS VL: QSALTQPRSASGNPGQRVTISCSGSSSNMGRRPVNWYQQIPGTAPKLLIYSQNQRPSGVPDRFSGSQSGTSASLTISGLQSEDEAEYFCATWDDSTPHGVFGGGTKLAVL |  |  |  |  |  |  |  | 60 | ≥ 25 | 80 |  |
| CPA.9.086 (fab) (Fab, V domains shown, variant of CPA.9.027 screened as fab) VH: EVQLVETGGGLIQPGRSLRLSCAASGFTFSSYAMHWVRQAPGKGLEWVAVISYAGEVKYYADSVKGRFTISRDNSKNTLYLQMNSLRAEDTAVYYCARDPLPLHYYGMDVWGQGTTVTVSS VL: QSALTQPRSASGNPGQRVTISCSGSSSNMGRRPVNWYQQIPGTAPKLLIYSQNQRPSGVPDRFSGSQSGTSASLTISGLQSEDEAEYFCAVWDDIGRVLQLGGGTQLAVLG |  |  |  |  |  |  |  | 34 | ≥ 25 | 36 |  |
